Source: publication PMC10624902, “Structure of a membrane-bound menaquinol:organohalide oxidoreductase” (Nature Communications, 2023)

Legend:
[1] = target: T1, PceA2B2 complex (menaquinol:organohalide oxidoreductase, MOOR; DhPceA / DhPceB) (Desulfitobacterium hafniense, UniProt Q8GJ30+Q8GJ31); assay: cryo-EM structure, […] A; format: binding; conditions: PceA active site / channel, 5.3 A from cobalt; cells grown with PCE
T1 construct: gene pceA; native complex from D. hafniense membranes, DDM-solubilised, SEC into LMNG; no tag; PceA C-terminal domain S486-Q551 present; PceA exported via Tat
T1 sequence (Q8GJ31 40-551): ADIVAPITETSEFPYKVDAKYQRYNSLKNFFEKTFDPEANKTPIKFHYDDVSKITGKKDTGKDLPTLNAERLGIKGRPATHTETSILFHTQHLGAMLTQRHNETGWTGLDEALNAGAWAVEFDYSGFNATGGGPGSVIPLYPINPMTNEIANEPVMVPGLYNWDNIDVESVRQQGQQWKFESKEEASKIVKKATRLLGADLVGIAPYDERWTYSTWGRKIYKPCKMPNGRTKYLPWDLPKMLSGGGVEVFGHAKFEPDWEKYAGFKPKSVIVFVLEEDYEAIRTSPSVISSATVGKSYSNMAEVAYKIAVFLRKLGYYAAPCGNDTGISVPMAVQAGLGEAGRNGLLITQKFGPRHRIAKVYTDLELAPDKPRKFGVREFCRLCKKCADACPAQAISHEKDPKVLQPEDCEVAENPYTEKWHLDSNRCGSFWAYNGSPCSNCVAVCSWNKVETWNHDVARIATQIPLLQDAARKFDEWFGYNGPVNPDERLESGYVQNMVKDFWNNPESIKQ
T1 sequence (Q8GJ30 1-105): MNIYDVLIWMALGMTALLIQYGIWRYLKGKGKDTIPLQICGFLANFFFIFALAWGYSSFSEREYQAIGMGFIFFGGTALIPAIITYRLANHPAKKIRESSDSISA

[2] = target: the molecule itself; assay: native gel or EMSA; Clear-Native PAGE (5-15% gradient, Bis-Tris) of DDM-solubilised membrane extract and soluble fraction, anaerobic; Coomassie and in-gel PCE dehalogenase activity staining; the ~180 kDa band cut out, run on SDS-PAGE as second dimension and analysed by LC-MS/MS
[3] = target: the molecule itself; assay: cryo-EM structure; native PceA2B2 complex purified from the membrane extract by SEC in 25 mM HEPES-NaOH pH 7.5, 150 mM NaCl, 0.005% LMNG; single-particle analysis, C2 symmetry, 2.83 Å

Molecule: Cl/C=C\Cl [cis-1,2-dichloroethene]
- cryo-EM structure, 2.83 A [1]: density for a dichloroethene (DCE) molecule, the final product of PCE dechlorination

B1: PceA, catalytic subunit of the tetrachloroethene (PCE) reductive dehalogenase from Desulfitobacterium hafniense strain TCE1 (enzyme, UniProt Q8GJ31 40-551, looked up)
chain: ADIVAPITETSEFPYKVDAKYQRYNSLKNFFEKTFDPEANKTPIKFHYDDVSKITGKKDTGKDLPTLNAERLGIKGRPATHTETSILFHTQHLGAMLTQRHNETGWTGLDEALNAGAWAVEFDYSGFNATGGGPGSVIPLYPINPMTNEIANEPVMVPGLYNWDNIDVESVRQQGQQWKFESKEEASKIVKKATRLLGADLVGIAPYDERWTYSTWGRKIYKPCKMPNGRTKYLPWDLPKMLSGGGVEVFGHAKFEPDWEKYAGFKPKSVIVFVLEEDYEAIRTSPSVISSATVGKSYSNMAEVAYKIAVFLRKLGYYAAPCGNDTGISVPMAVQAGLGEAGRNGLLITQKFGPRHRIAKVYTDLELAPDKPRKFGVREFCRLCKKCADACPAQAISHEKDPKVLQPEDCEVAENPYTEKWHLDSNRCGSFWAYNGSPCSNCVAVCSWNKVETWNHDVARIATQIPLLQDAARKFDEWFGYNGPVNPDERLESGYVQNMVKDFWNNPESIKQ
notes: PceA, catalytic subunit of the PCE reductive dehalogenase, Desulfitobacterium hafniense strain TCE1 (DSM 12704), locus tag DeshaDRAFT_2412; C-terminal domain printed as S486-Q551; Native protein with a cobalamin and two [4Fe-4S] clusters; a menaquinone lies at the interface with PceB; the modelled residues are in PDB 8Q4H; also called DhPceA; RdhA; source: endogenous, D. hafniense strain TCE1: …
- stoichiometry N [2]: 2

B2: PceB, integral membrane anchor subunit of the PCE reductive dehalogenase from Desulfitobacterium hafniense strain TCE1 (natural protein, UniProt Q8GJ30 1-105, looked up)
chain: MNIYDVLIWMALGMTALLIQYGIWRYLKGKGKDTIPLQICGFLANFFFIFALAWGYSSFSEREYQAIGMGFIFFGGTALIPAIITYRLANHPAKKIRESSDSISA
notes: PceB, small integral membrane subunit with three transmembrane helices, encoded in the pceABCT operon of Desulfitobacterium hafniense strain TCE1; also called DhPceB; RdhB; source: endogenous, D. hafniense strain TCE1: DDM-solubilised membrane extract; purified as PceA2B2 complex by size-exclusion chromatography (Superose 6 Increase) for cryo-EM
- binding result [3]: binds
